According to patent publication US7166733B2, “O,O'-Amidomalonate and N,O-Amidomalonate platinum complexes” (priority 2000, dated 2007):

Assay: Dependence on pH of the isomer ratio of O,O′—Pt to N,O—Pt chelate (195Pt NMR of timed aliquots)
Format: physicochemical
Experimental: The percent of O,O′- and N,O-chelate in timed aliquots of reactions mixtures were determined by removing enough of the reaction mixture (4–15 mL depending on concentration) to give greater than 100 mg of Pt-chelate if only ^195Pt NMR spectroscopy was to be done or about 200 mg if % Pt, and % H2O were also to be determined. The aliquots were purified by ultrafiltration using a Centricon Plus-20 centrifugal filter with a 5 kDa Biomax membrane from Millipore. The charged device was spun at the recommended RCF until less than 1 mL remained. The filtrate was discarded, the retentate was diluted with 15–18 mL water and the sample was centrifuged. This was repeated once more, and the retentate was lyophilized to give the sample for analysis.
^195Pt NMR spectra were obtained from a filtered 0.70 mL solution in 93/7 H2O/D2O in a 5 mm tube. Enough sample (80–120 mg) was used to give a solution that was >50 mM in platinum. The probe was tuned for each sample. A pulse width of 90 degrees, an acquisition time of 10 msec, a spectral window of 100 kHz and no delay was used. The transmitter was tuned to approximately midway between the O,O′—Pt and N,O—Pt chelates shifts (−1896 ppm for cis-diammine Pt and at −2450 for DACH—Pt). Between 50,000 and 1 million transients were typically required to obtain a sufficient (>35:1) s/n ratio for the cis-diammine-Pt and DACH=Pt species, respectively. The resulting FID was increasingly left-shifted until a flat baseline was obtained, a 100 Hz line broadening was applied, and a Fourier fill of 2048 was applied before processing. Integral regions were set and the spectrum's baseline was subjected to a spline fit using VNMR software v6.1. The sample was referenced externally to a 100 mM sample of K2PtCl4 in 95/5H2O/D2O and 100 mM HCl at −1624 ppm. This was also used to determine the 90 degree pulse width and T1.
Four 50 mL Centrifuge tubes were each charged with 1.00 g of p(HPMA)-GFLG-Ama=Pt(NH3)2 (either 100% N,O-chelate) or a 92% O,O-chelate, 8% N,O-chelate mixture. These materials were dissolved in 27 mL Milli-Q water (approx a 4 wt % solution) and adjusted to the pH ranges desired using 1 M NaOH or 5% HClO4 as appropriate. The samples were then heated, with stirring, in a 38° C. water bath and maintained within their specified pH ranges. Timed aliquots were taken and frozen until a suitable time at which point the solutions were concentrated by centrifugal ultrafiltration (one spin down at 4800 rpm, 30° C.) and then transferred to an NMR tube. A small amount of D2O was added to each tube and the ^195Pt NMR spectra were recorded.

[1] = pH 5.0–5.5, 38° C., 100 mM ClO4^−, 1 h
[2] = pH 5.0–5.5, 38° C., 100 mM ClO4^−, 5 h
[3] = pH 5.0–5.5, 38° C., 100 mM ClO4^−, 8 h
[4] = pH 5.0–5.5, 38° C., 100 mM ClO4^−, 22 h
[5] = pH 5.0–5.5, 38° C., 100 mM Cl^−, 1 h
[6] = pH 5.0–5.5, 38° C., 100 mM Cl^−, 5 h
[7] = pH 5.0–5.5, 38° C., 100 mM Cl^−, 8 h
[8] = pH 5.0–5.5, 38° C., 100 mM Cl^−, 22 h

poly(HPMA)-GFLG-Ama=Pt(NH3)2, N,O—Pt chelate [Example 4]
N,O— chelate (pH 3.0–3.5, 38° C., 1 h): 2%
O,O— chelate (pH 3.0–3.5, 38° C., 1 h): 98%
N,O— chelate (pH 3.0–3.5, 38° C., 5 h): 0%
O,O— chelate (pH 3.0–3.5, 38° C., 5 h): 100%
N,O— chelate (pH 3.0–3.5, 38° C., 20 h): 0%
O,O— chelate (pH 3.0–3.5, 38° C., 20 h): 100%
N,O— chelate (pH 4.0–4.5, 38° C., 1 h): 55%
O,O— chelate (pH 4.0–4.5, 38° C., 1 h): 45%
N,O— chelate (pH 4.0–4.5, 38° C., 5 h): 44%
O,O— chelate (pH 4.0–4.5, 38° C., 5 h): 56%
N,O— chelate (pH 4.0–4.5, 38° C., 20 h): 32%
O,O— chelate (pH 4.0–4.5, 38° C., 20 h): 68%
N,O— chelate [1]: 90%
O,O— chelate [1]: 10%
N,O— chelate [2]: 88%
O,O— chelate [2]: 12%
N,O— chelate [3]: 77%
O,O— chelate [3]: 23%
N,O— chelate [4]: 75%
O,O— chelate [4]: 25%
N,O— chelate [5]: 91%
O,O— chelate [5]: 9%
N,O— chelate [6]: 92%
O,O— chelate [6]: 8%
N,O— chelate [7]: 89%
O,O— chelate [7]: 11%
N,O— chelate [8]: 87%
O,O— chelate [8]: 13%
N,O— chelate (pH 5.0–5.5, 38° C., 1 h): 94%
O,O— chelate (pH 5.0–5.5, 38° C., 1 h): 6%
N,O— chelate (pH 5.0–5.5, 38° C., 5 h): 85%
O,O— chelate (pH 5.0–5.5, 38° C., 5 h): 15%
N,O— chelate (pH 5.0–5.5, 38° C., 20 h): 81%
O,O— chelate (pH 5.0–5.5, 38° C., 20 h): 19%
N,O— chelate (pH 6.0–6.5, 38° C., 1 h): 100%
O,O— chelate (pH 6.0–6.5, 38° C., 1 h): 0%
N,O— chelate (pH 6.0–6.5, 38° C., 5 h): 100%
O,O— chelate (pH 6.0–6.5, 38° C., 5 h): 0%
N,O— chelate (pH 6.0–6.5, 38° C., 20 h): 100%
O,O— chelate (pH 6.0–6.5, 38° C., 20 h): 0%
